Test results: US20260224701A1
Changes are numbered by the printed parent chain. One block for each binder: values may come before it.

Assays:
[1] = molecular target: human 4Ig-B7-H3 extracellular domain (human) (UniProt Q5ZPR3); assay: biolayer interferometry (Octet); ratio of the KD values against 2Ig-B7-H3 as reference
[2] = molecular target: human 4Ig-B7-H3 extracellular domain (human) (UniProt Q5ZPR3); assay: biolayer interferometry (Octet), antibody captured on the probe, extracellular domain in solution
Human rhB7-H3 (human) [3] = molecular target: Human rhB7-H3 (human) (UniProt Q5ZPR3); assay: SPR (Biacore 8K/T200), purified IgG as ligand, rhB7-H3 as analyte
Human rhB7-H3 (human) [4] = molecular target: Human rhB7-H3 (human) (UniProt Q5ZPR3); assay: SPR (Biacore 8K/T200), Fab-SASA captured on immobilised albumin, B7-H3 as analyte, 1:1 model
Human rhB7-H3 (human) [5] = molecular target: Human rhB7-H3 (human) (UniProt Q5ZPR3); assay: SPR (Biacore 8K/T200), antibody captured via Fc, B7-H3 antigen as analyte at 1.17-75 nM
[6] = molecular target: Porcine 4Ig-B7-H3 extracellular domain (porcine); assay: biolayer interferometry (Octet), antibody captured on the probe, extracellular domain in solution
[7] = molecular target: human 2Ig-B7-H3 extracellular domain (human) (UniProt Q5ZPR3); assay: as above

human 4Ig-B7-H3 extracellular domain (human), sequence (Q5ZPR3 29-466): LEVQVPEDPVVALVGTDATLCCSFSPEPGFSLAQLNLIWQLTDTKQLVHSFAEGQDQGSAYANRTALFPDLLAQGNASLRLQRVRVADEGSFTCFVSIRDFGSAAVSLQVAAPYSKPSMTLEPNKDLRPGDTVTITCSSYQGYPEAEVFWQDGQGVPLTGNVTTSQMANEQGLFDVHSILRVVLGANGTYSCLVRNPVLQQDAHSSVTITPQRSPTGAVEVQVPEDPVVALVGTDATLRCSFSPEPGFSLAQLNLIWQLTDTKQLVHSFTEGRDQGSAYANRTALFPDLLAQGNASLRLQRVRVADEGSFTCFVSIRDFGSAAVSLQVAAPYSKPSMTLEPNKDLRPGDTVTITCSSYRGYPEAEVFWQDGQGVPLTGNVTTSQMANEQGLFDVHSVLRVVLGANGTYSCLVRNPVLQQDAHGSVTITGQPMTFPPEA
Porcine 4Ig-B7-H3 extracellular domain (porcine), sequence (chain, as listed by the source): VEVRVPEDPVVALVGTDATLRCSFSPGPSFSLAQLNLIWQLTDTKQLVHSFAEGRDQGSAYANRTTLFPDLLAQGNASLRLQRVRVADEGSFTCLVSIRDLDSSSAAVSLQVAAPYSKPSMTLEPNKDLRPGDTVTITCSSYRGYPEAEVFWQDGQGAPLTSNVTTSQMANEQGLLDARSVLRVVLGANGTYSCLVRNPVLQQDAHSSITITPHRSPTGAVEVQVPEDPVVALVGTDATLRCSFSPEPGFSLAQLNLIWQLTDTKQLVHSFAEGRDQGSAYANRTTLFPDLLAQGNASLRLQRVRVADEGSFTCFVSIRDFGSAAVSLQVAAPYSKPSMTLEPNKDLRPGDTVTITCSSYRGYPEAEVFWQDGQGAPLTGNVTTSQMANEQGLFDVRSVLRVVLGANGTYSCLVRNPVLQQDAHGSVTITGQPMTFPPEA

B1: MIL33B-H3-hIgG1 (antibody, V domains shown)
VH: QVQLVQSGAEVKKPGASVKVSCKASGYTFTSYVMHWVRQAPGQRLEWMGYINSYSDGTKYNEKFKGRVTITRDTSASTAYMELSSLRSEDTAVYYCARWGGLGNGAMDYWGQGTLVTVSS
VL: EIVLTQSPATLSLSPGERATLSCSVSSSVNYMHWYQQKPGQAPRRLIYDTSKLASGIPARFSGSGSGTDYTLTISSLEPEDFAVYYCQQWTSNPLTFGQGTKLEIK
selectivity ratio, 4Ig-B7-H3 over 2Ig-B7-H3 [1]: 360 | Kd [2]: 0.121 nM | Kd (Human rhB7-H3 (human) [3]): 0.243 nM | koff (Human rhB7-H3 (human) [3]): 0.000117 s⁻¹ | kon (Human rhB7-H3 (human) [3]): 481000 M⁻¹ s⁻¹

B2: AHF15948 Fab-SASA (Fab, V domains shown)
VH: B1 VH
VL: B1 VL
Kd (Human rhB7-H3 (human) [4]): 0.366 nM | koff (Human rhB7-H3 (human) [4]): 9.35e-05 s⁻¹ | kon (Human rhB7-H3 (human) [4]): 255000 M⁻¹ s⁻¹

B3: AHF15945 Fab-SASA (Fab, V domains shown)
VH: B1 VH with R72S
VL: B1 VL
Kd (Human rhB7-H3 (human) [4]): 0.888 nM | koff (Human rhB7-H3 (human) [4]): 0.000244 s⁻¹ | kon (Human rhB7-H3 (human) [4]): 274000 M⁻¹ s⁻¹

B4: MIL33B-H2-hIgG1 (antibody, V domains shown)
VH: B1 VH with V68A
VL: B1 VL
Kd [2]: 0.12 nM | Kd (Human rhB7-H3 (human) [3]): 0.226 nM | koff (Human rhB7-H3 (human) [3]): 0.000105 s⁻¹ | kon (Human rhB7-H3 (human) [3]): 464000 M⁻¹ s⁻¹

B6: MIL33B-H1-hIgG1 (antibody, V domains shown)
VH: B1 VH with R72S
VL: B1 VL
Kd [2]: 0.153 nM | Kd (Human rhB7-H3 (human) [3]): 0.233 nM | koff (Human rhB7-H3 (human) [3]): 0.000139 s⁻¹ | kon (Human rhB7-H3 (human) [3]): 597000 M⁻¹ s⁻¹

B7: Grafted Fab-SASA (Fab, V domains shown)
VH: B1 VH
VL: EIVLTQSPATLSLSPGERATLSCSVSSSVNYMHWYQQKPGQAPRLLIYDTSKLASGIPARFSGSGSGTDFTLTISSLEPEDFAVYYCQQWTSNPLTFGQGTKLEIKR
Kd (Human rhB7-H3 (human) [4]): 28.5 nM | koff (Human rhB7-H3 (human) [4]): 0.0117 s⁻¹ | kon (Human rhB7-H3 (human) [4]): 413000 M⁻¹ s⁻¹

B8: MIL33B chimeric antibody (full-length IgG) (antibody, V domains shown)
VH: EVQLQQSGPELVKPGASVKMSCKASGYTFTSYVMHWVRQSPGQGLEGIGYINSYSDGTKYNEKFKGKATLTSDKSSSTAYMELSGLTSEDSAVYYCARWGGLGNGAMDYWGQGTSVTVSS
VL: QIVLTQSPAIMSASPGEKVTMTCSVSSSVNYMHWYQQKSGTSPKRWIYDTSKLASGVPARFSASGSGTSYSLTISSMEAEDAATYYCQQWTSNPLTFGAGTKLELKR
Kd (Human rhB7-H3 (human) [5]): 0.199 nM | koff (Human rhB7-H3 (human) [5]): 0.000121 s⁻¹ | kon (Human rhB7-H3 (human) [5]): 609000 M⁻¹ s⁻¹ | Kd [2]: 0.16 nM | Kd (Human rhB7-H3 (human) [3]): 0.148 nM | koff (Human rhB7-H3 (human) [3]): 7.16e-05 s⁻¹ | kon (Human rhB7-H3 (human) [3]): 482000 M⁻¹ s⁻¹

Next, values leading:

Kd (Human rhB7-H3 (human) [4]): 0.00804 nM | koff (Human rhB7-H3 (human) [4]): 1.97e-06 s⁻¹ | kon (Human rhB7-H3 (human) [4]): 245000 M⁻¹ s⁻¹
B5: AHF15938 Fab-SASA (Fab, V domains shown)
VH: B1 VH with V68A
VL: B1 VL

Kd (Human rhB7-H3 (human) [4]): 0.499 nM | koff (Human rhB7-H3 (human) [4]): 0.000131 s⁻¹ | kon (Human rhB7-H3 (human) [4]): 262000 M⁻¹ s⁻¹
B9: Chimeric Fab-SASA (Fab, V domains shown)
VH: B8 VH
VL: B8 VL

Kd [6]: 0.102 nM | Kd [2]: 0.0807 nM | Kd [7]: 0.781 nM
B10: MIL33B-mIgG2a (murine MIL33B antibody) (antibody, from a related filing, V domains shown)
VH: B8 VH
VL: QIVLTQSPAIMSASPGEKVTMTCSVSSSVNYMHWYQQKSGTSPKRWIYDTSKLASGVPARFSASGSGTSYSLTISSMEAEDAATYYCQQWTSNPLTFGAGTKLELK
